Test results as given in paper PMC3082741 (Chemistry & biology, 2011).
Values joined by “and” are separate entries in the source; they are usually repeats but may differ in a detail not shown here. Identical values can stand only once.

Experiments:
[1] = molecular target: AcrA^S362C modified with biotin-maleimide, the immobilized AcrA (E. coli) (UniProt P0AE06); assay: SPR
SEC-MALS [2] = molecular target: the molecule itself; assay: SEC-MALS
SEC-MALS [3] = molecular target: the molecule itself; assay: SEC-MALS; remark: listed apart in the source
[4] = molecular target: the molecule itself; assay: SDS-PAGE under reducing and non-reducing conditions

TolC, outer membrane channel, sequence (P02930 23-493): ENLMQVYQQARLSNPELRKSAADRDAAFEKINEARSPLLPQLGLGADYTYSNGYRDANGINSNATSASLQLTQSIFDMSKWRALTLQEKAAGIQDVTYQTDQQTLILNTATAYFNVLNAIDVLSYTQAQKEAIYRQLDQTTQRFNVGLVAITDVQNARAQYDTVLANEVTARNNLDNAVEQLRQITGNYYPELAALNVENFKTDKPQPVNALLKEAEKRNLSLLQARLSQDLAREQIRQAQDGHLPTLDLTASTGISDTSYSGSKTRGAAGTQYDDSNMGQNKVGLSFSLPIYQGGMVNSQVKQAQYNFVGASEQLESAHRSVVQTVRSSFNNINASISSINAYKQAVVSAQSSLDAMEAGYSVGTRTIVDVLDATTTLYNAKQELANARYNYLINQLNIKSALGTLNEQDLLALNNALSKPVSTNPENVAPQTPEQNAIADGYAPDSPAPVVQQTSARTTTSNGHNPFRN

| Molecule | KD1 (slow complexes, two populations of AcrA) [1] | KD2 (fast complexes, two populations of AcrA) [1] | also measured |
| --- | --- | --- | --- |
| TolC, outer membrane channel (from UniProt P02930 23-493) (natural protein) | 0.01 µM | 0.11 µM |  |
| TolC^YFRE, TolC mutant containing Y362F and R367E substitutions (open variant) (from UniProt P02930 23-493) (natural protein) | 0.02 µM | 6.7 µM |  |
| AcrB^S1043C biotinylated at C1043 (Cys1043^bio), the immobilized AcrB (natural protein, maleimide-PEG2-biotin on C1043) MPNFFIDRPIFAWVIAIIIMLAGGLAILKLPVAQYPTIAPPAVTISASYPGADAKTVQDTVTQVIEQNMNGIDNLMYMSSNSDSTGTVQITLTFESGTDADIAQVQVQNKLQLAMPLLPQEVQQQGVSVEKSSSSFLMVVGVINTDGTMTQEDISDYVAANMKDAISRTSGVGDVQLFGSQYAMRIWMNPNELNKFQLTPVDVITAIKAQNAQVAAGQLGGTPPVKGQQLNASIIAQTRLTSTEEFGKILLKVNQDGSRVLLRDVAKIELGGENYDIIAEFNGQPASGLGIKLATGANALDTAAAIRAELAKMEPFFPSGLKIVYPYDTTPFVKISIHEVVKTLVEAIILVFLVMYLFLQNFRATLIPTIAVPVVLLGTFAVLAAFGFSINTLTMFGMVLAIGLLVDDAIVVVENVERVMAEEGLPPKEATRKSMGQIQGALVGIAMVLSAVFVPMAFFGGSTGAIYRQFSITIVSAMALSVLVALILTPALSATMLKPIAKGDHGEGKKGFFGWFNRMFEKSTHHYTDSVGGILRSTGRYLVLYLIIVVGMAYLFVRLPSSFLPDEDQGVFMTMVQLPAGATQERTQKVLNEVTHYYLTKEKNNVESVFAVNGFGFAGRGQNTGIAFVSLKDWADRPGEENKVEAITMRATRAFSQIKDAMVFAFNLPAIVELGTATGFDFELIDQAGLGHEKLTQARNQLLAEAAKHPDMLTSVRPNGLEDTPQFKIDIDQEKAQALGVSINDINTTLGAAWGGSYVNDFIDRGRVKKVYVMSEAKYRMLPDDIGDWYVRAADGQMVPFSAFSSSRWEYGSPRLERYNGLPSMEILGQAAPGKSTGEAMELMEQLASKLPTGVGYDWTGMSYQERLSGNQAPSLYAISLIVVFLSLAALYESWSIPFSVMLVVPLGVIGALLAATFRGLTNDVYFQVGLLTTIGLSAKNAILIVEFAKDLMDKEGKGLIEATLDAVRMRLRPILMTSLAFILGVMPLVISTGAGSGAQNAVGTGVMGGMVTATVLAIFFVPVFFVVVRRRFSRKNEDIEHCHTVDHH |  |  | stoichiometry N (SEC-MALS [2]): 2 and 3 |
| AcrA^l, native lipid-modified AcrA (natural protein, N-terminal lipid modification at C25) CDDKQAQQGGQQMPAVGVVTVKTEPLQITTELPGRTSAYRIAEVRPQVSGIILKRNFKEGSDIEAGVSLYQIDPATYQATYDSAKGDLAKAQAAANIAQLTVNRYQKLLGTQYISKQEYDQALADAQQANAAVTAAKAAVETARINLAYTKVTSPISGRIGKSNVTEGALVQNGQATALATVQQLDPIYVDVTQSSNDFLRLKQELANGTLKQENGKAKVSLITSDGIKFPQDGTLEFSDVTVDQTTGSITLRAIFPNPDHTLLPGMFVRARLEEGLNPNAILVPQQGVTRTPRGDATVLVVGADDKVETRPIVASQAIGDKWLVTEGLKAGDRVVISGLQKVRPGVQVKAQEVTADNNQQAASGAQPEQSKS |  |  | stoichiometry N (SEC-MALS [3]): 2 |
| AcrA^G363C, lipid-modified AcrA with the G363C substitution in the MP domain (natural protein, N-terminal lipid modification at C25; disulfide bond between the two chains) CDDKQAQQGGQQMPAVGVVTVKTEPLQITTELPGRTSAYRIAEVRPQVSGIILKRNFKEGSDIEAGVSLYQIDPATYQATYDSAKGDLAKAQAAANIAQLTVNRYQKLLGTQYISKQEYDQALADAQQANAAVTAAKAAVETARINLAYTKVTSPISGRIGKSNVTEGALVQNGQATALATVQQLDPIYVDVTQSSNDFLRLKQELANGTLKQENGKAKVSLITSDGIKFPQDGTLEFSDVTVDQTTGSITLRAIFPNPDHTLLPGMFVRARLEEGLNPNAILVPQQGVTRTPRGDATVLVVGADDKVETRPIVASQAIGDKWLVTEGLKAGDRVVISCLQKVRPGVQVKAQEVTADNNQQAASGAQPEQSKS |  |  | stoichiometry N [4]: 2 |
